Test results reported in patent US20220202899A1, “COMPOSITION FOR PREVENTION OR TREATMENT OF HAIR LOSS INCLUDING HAPLN1” (HAPLNSCIENCE INC., priority 2019, published 2022).

Legend:
Type in all cases: cell-based
TβRII [1] = assay: TβRII protein in human hair germinal matrix cells deficient in endogenous HA (4-MU); settings: 4-MU-treated cells; HAPLN1 25 ng/mL; TGF-β2 2 ng/mL
Description: 4-MU (4-methylumbelliferone) is an inhibitor of HA-producing hyaluronan synthase 2 (HAS2), which produces HA. In order to confirm the effect of HA produced in cells, HA production in cells was inhibited using 4-MU.
(§1) The human hair germinal matrix cells, in which the endogenous HA was inhibited by treating 4-MU, were dispensed into a poly-D-lysine 6-well plate at a concentration of 5.0×10^4 per well and cultured for 24 hours. After 24 hours, the medium was removed and replaced with a new serum-free medium. HAPLN1 was treated with 25 ng/mL, and after 1 hour, TGF-β2 (2 ng/mL) was treated. After 23 hours, cells were collected, a lysis buffer (25 mM Tris-HCl, 1 mM EDTA, 0.1% Triton-X100, phosphatase inhibitor, and protease inhibitor) was added, and all the cells were broken through sonication. HAS2 and TβRII in the sample were measured using Western blotting. The optical density of each of HAS2 and TβRII was compared to that of GAPDH using a densitometer.

[2] = system: human hair germinal matrix cells; assay: Cell proliferation of human hair germinal matrix cells, CCK-8 (Example 10); settings: HAPLN1 25 ng/mL and/or HA 25 μg/mL; TGF-β2 2 ng/mL, 23 hours
Description: Human hair germinal matrix cells were dispensed into a poly-D-lysine 96-well plate at a concentration of 2.0×10^4 per well and cultured for 24 hours. After 24 hours, the medium was removed and replaced with a new serum-free medium. HAPLN1 was treated with 25 ng/mL and HA with 25 μg/mL, incubated for 1 hour, and then stimulated with TGF-β2 (2 ng/mL) for 23 hours. CCK-8 (Enzo Biochem, NY, USA) was treated and incubated at 37° C. for 1 hour.

[3] = system: human dermal papilla cells; assay: Dermal papilla cell proliferating effect, CCK-8 (Example 13); settings: proteins 25 ng/ml, minoxidil 10 μM; TGF-β2 (2 ng/ml) present or absent
Description: Human dermal papilla cells were cultured in a 37° C., 5% CO2 incubator using a dermal papilla cell proliferation medium (Promocell). When the cells were about 90% full, the cells were detached with a 0.05% Trypsin/EDTA solution and then centrifuged at 1000 rpm for 3 minutes to recover only the cells. The cells were dispensed into a 96-well plate at 2.0×10^3 per well, cultured for 24 hours, and HAPLN1, CX3CL1 and CDON were diluted to have a final concentration of 25 ng/ml in serum-free medium. After removing the existing culture medium, 200 μl of diluted HAPLN1, CX3CL1, and CDON were dispensed into each well and cultured for 1 hour. To reduce an experimental variation, 3 wells per group were treated (triplication). In addition, minoxidil, which is known to proliferate dermal papilla cells, was treated with 10 μM and set as a positive control.
In the same manner as described above, HAPLN1 (25 ng/ml), CX3CL1 (25 ng/ml), CDON (25 ng/ml) or minoxidil (10 μM), and human recombinant TGF-β2 were diluted to a final concentration of 2 ng/ml, and the medium of the group containing TGF-β2 was replaced by 200 μl. To reduce an experimental variation, 3 wells per group were treated (triplication).
After incubation for 23 hours, the plate was removed from the incubator, and 20 μl of CCK-8 (WST-8) solution was added to the plate containing the medium and the reagent per 200 μl of the medium for the reaction to be carried out at 37° C. for 1 hour.

p-c-Raf = p-c-Raf in human hair germinal matrix cells stimulated with TGF-β2 (Western blotting); settings: HAPLN1 25 ng/mL and/or HA 25 μg/mL; TGF-β2 2 ng/mL, 1 hour
Description: (§2) Human hair germinal matrix cells were dispensed into a poly-D-lysine 6-well plate at a concentration of 5.0×10^4 per well and cultured for 24 hours. After 24 hours, the medium was removed and replaced with a new serum-free medium. HAPLN1 was treated with 25 ng/mL and HA with 25 μg/mL, incubated for 23 hours, and then stimulated with TGF-β2 (2 ng/mL) for 1 hour. After collecting cells, a lysis buffer (25 mM Tris-HCl, 1 mM EDTA, 0.1% Triton-X100, phosphatase inhibitor, and protease inhibitor) was added, and all the cells were broken through sonication. p-ERK1/2, p-Smad2, p-MEK1/2, and p-c-Raf in the sample were measured using Western blotting. Optical densities of p-ERK1/2, p-Smad2, p-MEK1/2, and p-c-Raf were compared to those of ERK1/2, Smad2/3, MEK1, and c-Raf using a densitometer. Here, ERK1/2, Smad2/3, MEK1, and c-Raf were used as loading controls.

p-MEK1/2 = p-MEK1/2 in human hair germinal matrix cells stimulated with TGF-β2 (Western blotting); settings: HAPLN1 25 ng/mL and/or HA 25 μg/mL; TGF-β2 2 ng/mL, 1 hour
Description: as §2

TβRII [4] = assay: TβRII protein in human hair germinal matrix cells treated with HAPLN1 by concentration (Western blotting); settings: 20 ng/mL of HAPLN1, 24 hours, serum-free medium
Description: HAPLN1 was treated on human hair germinal matrix cells by concentration. Specifically, human hair germinal matrix cells (HHGMC) were dispensed into a poly-D-lysine 6-well plate at 5.0×10^4 per well and cultured for 24 hours. After 24 hours, the medium was removed and replaced with a new serum-free medium. HAPLN1 was treated with 0, 5, 10, 20 ng/mL and incubated for 24 hours. After collecting cells, a lysis buffer (25 mM Tris-HCl, 1 mM EDTA, 0.1% Triton-X100, phosphatase inhibitor, and protease inhibitor) was added, and all the cells were broken through sonication. TβRII in the sample was measured using Western blotting. The optical density of TβRII was compared to that of GAPDH using a densitometer (that is, TβRII optical concentration GAPDH optical concentration). Here, GAPDH was used as a loading control.

TβRII [5] = assay: TβRII protein in human hair germinal matrix cells treated with HAPLN1 and/or HA, then TGF-β2 (Western blotting)
Description: as §1, with “Human” for “The human”, “cells” for “cells, in which the endogenous HA was inhibited by treating 4-MU,”, “ng/mL, HA was treated with 25 μg/mL,” for “ng/mL,”, “TβRI” for “HAS2”, “of” for “of each of HAS2 and”

TβRI = TβRI protein in human hair germinal matrix cells treated with HAPLN1 and/or HA, then TGF-β2 (Western blotting); settings: HAPLN1 25 ng/mL; TGF-β2 2 ng/mL
Description: as §1, with “Human” for “The human”, “cells” for “cells, in which the endogenous HA was inhibited by treating 4-MU,”, “ng/mL, HA was treated with 25 μg/mL,” for “ng/mL,”, “TβRI” for “HAS2”, “of” for “of each of HAS2 and”

B1: hyaluronan and proteoglycan link protein 1 (protein, UniProt P10915 16-354, looked up)
Hyaluronan and proteoglycan …: DHLSDNYTLDHDRAIHIQAENGPHLLVEAEQAKVFSHRGGNVTLPCKFYRDPTAFGSGIHKIRIKWTKLTSDYLKEVDVFVSMGYHKKTYGGYQGRVFLKGGSDSDASLVITDLTLEDYGRYKCEVIEGLEDDTVVVALDLQGVVFPYFPRLGRYNLNFHEAQQACLDQDAVIASFDQLYDAWRGGLDWCNAGWLSDGSVQYPITKPREPCGGQNTVPGVRNYGFWDKDKSRYDVFCFTSNFNGRFYYLIHPTKLTYDEAVQACLNDGAQIAKVGQIFAAWKILGYDRCDAGWLADGSVRYPISRPRRRCSPTEAAVRFVGFPDKKHKLYGVYCFRAYN
notes: extracellular matrix protein found in cartilage; stabilizes aggregates of hyaluronic acid and proteoglycans
In the case of B1, the TβRII level (TβRII [1]) is reported as “recovered”, the “cell proliferation (absorbance at 450 nm) compared to the control group” value [2] is reported as “promoted” and the “dermal papilla cell proliferation (absorbance at 450 nm)” value [3] is reported as “did not proliferate dermal papilla cells or rather inhibited proliferation thereof”. For the same molecule, the “c-Raf activity (p-c-Raf compared to c-Raf)” value (p-c-Raf) was “increased activities”, the “MEK1/2 activity (p-MEK1/2 compared to MEK1)” value (p-MEK1/2) was “increased activities” and the “TβRII protein (optical density compared to GAPDH)” value (TβRII [4]) was “increased”. The “TβRII protein (optical density compared to GAPDH)” value (TβRII [5]; HAPLN1 25 ng/mL or HA 25 μg/mL alone, TGF-β2 2 ng/mL after 1 hour, 23 hours) was “significantly increased”, the “TβRII protein, HAPLN1 treated together with HA” value (TβRII [5]; HAPLN1 25 ng/mL with HA 25 μg/mL, TGF-β2 2 ng/mL) was “further enhanced the increase of TβRII by HA” and the “concentration of TβRI” value (TβRI) was “no change”.
